Reference: patent US11840574B2, “Anti-DR5 antibody and use thereof” (DONG-A ST CO., LTD., priority 2017, dated 2023)
Changes are numbered by the printed parent chain.

B1: DA5: humanized or deimmunized variant of parental clone D0; CDRs SEQ ID NO 1, 2, 7 / 4, 10, 13 (antibody, V domains shown)
VH: EVQLVESGGGLVQPGGSLRLSCAASGFTFSSFNMLWVRQAPGKGLEWVAGIGKSDRYTGYGSAVKGRFTISRDDSKSTAYLQMNSLRAEDTAVYYCVRDAGSGCGSGGWTGACIDTWGQGTLVTVSS
VL: DIQMTQSPSSLSASVGDRVTITCSGGDSYAGSYYYGWYQQKPGKAPKTLIYNNNNRPSGVPSRFSGSTSGTDFTLTISSLQPEDFATYYCGSRDSSYVGIFGQGTKVEIK
B2: DA14: humanized or deimmunized variant of parental clone D0; CDRs SEQ ID NO 1, 2, 7 / 4, 12, 13 (antibody, V domains shown)
VH: B1 VH with D74T, S77N, V97S
VL: B1 VL with R56K, P57A, S58K, T68R
B3: DA17: humanized or deimmunized variant of parental clone D0; CDRs SEQ ID NO 1, 2, 7 / 4, 12, 13 (antibody, V domains shown)
VH: B1 VH with A79V
VL: B1 VL with R56K, P57A, S58K, T68R
B4: DA6: humanized or deimmunized variant of parental clone D0; CDRs SEQ ID NO 1, 2, 7 / 4, 10, 13 (antibody, V domains shown)
VH: B1 VH with A79V, V97A
VL: B1 VL
B5: DA10: humanized or deimmunized variant of parental clone D0; CDRs SEQ ID NO 1, 2, 7 / 4, 10, 13 (antibody, V domains shown)
VH: B1 VH with D74T, S77N, V97S
VL: B1 VL with T68R
B6: DA15: humanized or deimmunized variant of parental clone D0; CDRs SEQ ID NO 1, 2, 7 / 4, 10, 15 (antibody, V domains shown)
VH: B1 VH with D74T, S77N, V97S
VL: B1 VL with T68R, S96D, Y97G, V98G, I100R
B7: DA9: humanized or deimmunized variant of parental clone D0; CDRs SEQ ID NO 1, 2, 7 / 4, 10, 13 (antibody, V domains shown)
VH: B1 VH with A79L
VL: B1 VL with T68R
B8: DA13: humanized or deimmunized variant of parental clone D0; CDRs SEQ ID NO 1, 2, 7 / 4, 10, 14 (antibody, V domains shown)
VH: B1 VH with D74T, S77N, V97S
VL: B1 VL with T68R, S96A, Y97G, V98M, I100A
B9: DA16: humanized or deimmunized variant of parental clone D0; CDRs SEQ ID NO 1, 2, 7 / 4, 10, 16 (antibody, V domains shown)
VH: B1 VH with D74T, S77N, V97S
VL: B1 VL with T68R, Y97G, V98A, I100G
B10: DA8: humanized or deimmunized variant of parental clone D0; CDRs SEQ ID NO 1, 2, 7 / 4, 10, 13 (antibody, V domains shown)
VH: B1 VH with A79V
VL: B1 VL with T68G
B11: DA7: humanized or deimmunized variant of parental clone D0; CDRs SEQ ID NO 1, 2, 7 / 4, 10, 13 (antibody, V domains shown)
VH: B1 VH with A79V, V97S
VL: B1 VL
B12: DA12: humanized or deimmunized variant of parental clone D0; CDRs SEQ ID NO 1, 2, 7 / 4, 11, 13 (antibody, V domains shown)
VH: B1 VH with D74T, S77N, V97S
VL: B1 VL with R56L, P57M, S58P, T68R
B13: DA18: humanized or deimmunized variant of parental clone D0; CDRs SEQ ID NO 1, 2, 7 / 4, 10, 15 (antibody, V domains shown)
VH: B1 VH with A79V
VL: B1 VL with T68R, S96D, Y97G, V98G, I100R
B14: DA24: humanized or deimmunized variant of parental clone D0; CDRs SEQ ID NO 1, 2, 7 / 4, 10, 13 (antibody, V domains shown)
VH: AVTLDESGGGLQTPGGGLSLVCKGSGFTFSSFNMLWVRQAPGKGLEWVAGIGKSDRYTGYGSAVKGRATISRDDGQSTVRLQLNNLRAEDTGTYYCVKDAGSGCGSGGWTGACIDTWGHGTEVIVSS
VL: LTQPSSVSANLGGTVEITCSGGDSYAGSYYYGWYQQKAPGSAPVTVIYNNNNRPSNIPSRFSGSTSGSTATLTITGVQAEDEATYYCGSRDSSYVGIFGAGTTLTVL
B15: DA25: humanized or deimmunized variant of parental clone D0; CDRs SEQ ID NO 1, 2, 7 / 4, 10, 13 (antibody, V domains shown)
VH: B14 VH with R80Y, L83M, N85S
VL: B14 VL with T84V, Y86F
B16: DA26: humanized or deimmunized variant of parental clone D0; CDRs SEQ ID NO 1, 2, 7 / 4, 10, 13 (antibody, V domains shown)
VH: B14 VH with R80Y, L83M, N85S
VL: B14 VL
B17: DA27: humanized or deimmunized variant of parental clone D0; CDRs SEQ ID NO 1, 2, 7 / 4, 10, 13 (antibody, V domains shown)
VH: B14 VH
VL: B14 VL with Y86F

Target: Human DR5 (Homo sapiens, UniProt O14763)
Assay: Binding affinity of antibody to human DR5 (BIAcore, CM5 chip)
Details: association rate, Human DR5, 1:1 Langmuir binding model
Experimental: In order to measure affinity, human DR5 was coupled to carboxylated dextran biosensor chips (CM5, GE) according to the manufacturer's instruction. Association and dissociation rates were assessed by injecting IgG proteins that were 2-fold serially diluted to 5 nM, 2.5 nM, 1.25 nM, 0.625 nM, 0.313 nM, and 0.156 nM.
Association and dissociation rates were depicted in association and dissociation sensorgrams and calculated using a simple 1:1 Langmuir binding model (BIAcore X100 Evaluation Software, ver. 2.0). The equilibrium dissociation constants (KD), which is the ratio of dissociation constant (Kd) to association constant (Ka), were confirmed to be in the sub-nanomolar range. Measurements of the binding of antibody D0 and DA1 to DA35 of the present disclosure to DR5 are given in Table 11 below (antibody names are given as the names of the clones from which the antibodies were derived). A representative sensorgram for D0 is depicted in FIG. 1.

Molecule | Ka | Ka(1/Ms)
B1 | 1.2e+06 M⁻¹ s⁻¹ | –
B2 | – | 4.27 × 10^06 1/Ms
B3 | – | 2.54 × 10^06 1/Ms
B4 | 7.8e+06 M⁻¹ s⁻¹ | –
B5 | 2.3e+06 M⁻¹ s⁻¹ | –
B6 | – | 2.56 × 10^06 1/Ms
B7 | 5.6e+06 M⁻¹ s⁻¹ | –
B8 | – | 2.62 × 10^06 1/Ms
B9 | – | 2.11 × 10^06 1/Ms
B10 | 1.6e+06 M⁻¹ s⁻¹ | –
B11 | 1.4e+06 M⁻¹ s⁻¹ | –
B12 | – | 2.37 × 10^06 1/Ms
B13 | – | 1.33 × 10^06 1/Ms
B14 | – | 1.20 × 10^06 1/Ms
B15 | – | 1.05 × 10^06 1/Ms
B16 | – | 1.09 × 10^06 1/Ms
B17 | – | 1.17 × 10^06 1/Ms

Same assay, conditions: equilibrium dissociation constant, Human DR5

Molecule | Kd
B2 | 23.5 pM
B3 | 23.5 pM
B5 | 7 pM
B6 | 1.09 pM
B8 | 11.2 pM
B9 | 26.1 pM
B11 | 1.9 pM
B12 | 12.7 pM
B13 | 27.7 pM
B14 | 1.02 pM
B15 | 1.62 pM
B16 | 1.01 pM
B17 | 1.92 pM
